Measurements published in US20250002610A1 (Genmab, published 2025).

Legend:
[1] = target: T1, cynomolgus monkey DR4 with death domain deletion on ExpiCHO-S cells (cynomolgus monkey (Macaca fascicularis)); assay: flow cytometry on ExpiCHO-S cells transiently expressing cynomolgus monkey DR4 (death domain deleted), gMFI PE
T1 construct: also called cynomolgus DR4
T1 chain: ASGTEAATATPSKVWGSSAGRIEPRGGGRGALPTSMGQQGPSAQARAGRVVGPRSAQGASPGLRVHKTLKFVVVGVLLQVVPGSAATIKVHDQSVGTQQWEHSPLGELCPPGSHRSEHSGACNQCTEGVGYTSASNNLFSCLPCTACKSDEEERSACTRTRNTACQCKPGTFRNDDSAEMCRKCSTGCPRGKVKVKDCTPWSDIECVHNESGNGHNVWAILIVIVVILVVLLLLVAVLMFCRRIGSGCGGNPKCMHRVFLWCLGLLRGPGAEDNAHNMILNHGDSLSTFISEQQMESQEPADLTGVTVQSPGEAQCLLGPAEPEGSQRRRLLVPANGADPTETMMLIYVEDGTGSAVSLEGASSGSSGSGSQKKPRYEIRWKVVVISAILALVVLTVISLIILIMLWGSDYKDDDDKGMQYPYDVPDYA

[2] = target: T2, human DR4 (Death Receptor 4), cell surface expressed on human tumor cell lines (human, UniProt O00220 24-468); assay: flow cytometry on MDA-MB-231 cells (endogenous DR4), antibody incubated at 37 °C, gMFI PE
T2 construct: also called TNFRSF10A; TRAIL-R1
T2 sequence: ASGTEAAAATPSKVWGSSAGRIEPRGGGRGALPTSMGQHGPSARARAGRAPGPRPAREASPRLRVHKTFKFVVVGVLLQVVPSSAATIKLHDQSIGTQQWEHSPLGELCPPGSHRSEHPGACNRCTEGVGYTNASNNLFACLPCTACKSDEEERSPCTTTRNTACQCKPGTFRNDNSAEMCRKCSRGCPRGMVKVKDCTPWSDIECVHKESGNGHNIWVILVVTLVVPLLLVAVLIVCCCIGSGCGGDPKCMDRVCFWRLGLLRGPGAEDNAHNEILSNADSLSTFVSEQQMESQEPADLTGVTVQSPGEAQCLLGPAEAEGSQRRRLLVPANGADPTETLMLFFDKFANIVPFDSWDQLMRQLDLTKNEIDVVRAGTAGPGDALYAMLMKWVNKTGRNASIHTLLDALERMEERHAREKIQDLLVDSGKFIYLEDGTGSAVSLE
Experimental: Binding of C1q to membrane-bound BisG1-FAPα-FERL/DR4-FERR was assessed by flow cytometry. MDA-MB-231 cells were harvested as described in Example 3, plated (50,000 cells/well) in round-bottom 96-well plates and incubated with a concentration range of BisG1-FAPα-FERL/DR4-FERR or IgG1-b12-FER control antibody (0.003-30 μg/mL in threefold increments) at 37° C. for 30 min. To assess C1q binding, normal human serum (NHS) (Sanquin, final concentration 20%) was added as a source of C1q and the mixture was incubated at 4° C. for 45 min. Cells were washed twice with FACS buffer (PBS [Lonza, Cat. #BE17-517Q] supplemented with 0.1% [w/v] BSA [Roche, Cat. #10735086001] and 0.02% [w/v] sodium azide [NaN3; bioWORLD, Cat. #41920044-3]) and subsequently incubated with FITC-conjugated rabbit anti-human C1q antibody (DAKO, Cat. #F0254; 1:100 in FACS buffer) at 4° C. for 30 min, protected from light. Within the same experiment, binding of the DR4-antibodies to the MDA-MB-231 cells was confirmed in parallel samples after the incubation with serial dilutions of the tested antibodies.

human DR4HsECD-FcHisCtag = target: T3, human DR4HsECD-FcHisCtag (human); assay: BLI, antigen captured on anti-Penta-HIS sensors
T3 construct: also called recombinant human DR4
Experimental: The binding affinity of BisG1-FAPα-FERL/DR4-FERR, BisG1-b12-FERL/DR4-FERR and control BisG1-FAPα-FERL/b12-FERR to recombinant human and cynomolgus monkey DR4 protein was determined using label-free biolayer interferometry on an Octet HTX instrument (Sartorius).
The protocol detailed in Example 5 was used with the following differences: anti-Penta-HIS biosensors (Sartorius, Cat #18-5120) were used; the sensors were preconditioned by exposure to 10 mM glycine (Sigma-Aldrich, Cat #15527) buffer pH 1.5 for 5 s, followed by neutralization in Sample Diluent (Sartorius, Cat #18-1104) for 5 s; both steps were repeated 2 times; the sensors were loaded with 50 nM human DR4HsECD-FcHisCtag (SEQ ID NO: 66), or cynomolgus DR4MfECD-FcHisCtag (SEQ ID NO: 67), for 600 s; the dissociation time was 1,000 s; The window of interest for the dissociation time was set at 100 s for the cynomolgus antigen and at 1,000 s for the human antigen.

[3] = target: T1, cynomolgus monkey DR4 with death domain …; assay: flow cytometry, ExpiCHO-S cells expressing cynomolgus monkey DR4, n = 3
Experimental: Binding of BisG1-FAPα-FERL/DR4-FERR, BisG1-DR4-FEAL/b12-FEAR and IgG1-DR4-FERR to DR4 of various species commonly used for nonclinical toxicology studies was assessed by flow cytometry using ExpiCHO-S cells transiently expressing DR4 from different animal species. In contrast to other species, rodents only express one DR which has highest homology with human DR5. Therefore, ExpiCHO-S cells transiently expressing rat and mouse DR protein were used instead. All DR constructs lack the intracellular DD to avoid apoptosis of transfected cells upon DR(4) activation. IgG1-b12 was used as negative control.

T3 sequence (chain, as listed by the source limits assumed): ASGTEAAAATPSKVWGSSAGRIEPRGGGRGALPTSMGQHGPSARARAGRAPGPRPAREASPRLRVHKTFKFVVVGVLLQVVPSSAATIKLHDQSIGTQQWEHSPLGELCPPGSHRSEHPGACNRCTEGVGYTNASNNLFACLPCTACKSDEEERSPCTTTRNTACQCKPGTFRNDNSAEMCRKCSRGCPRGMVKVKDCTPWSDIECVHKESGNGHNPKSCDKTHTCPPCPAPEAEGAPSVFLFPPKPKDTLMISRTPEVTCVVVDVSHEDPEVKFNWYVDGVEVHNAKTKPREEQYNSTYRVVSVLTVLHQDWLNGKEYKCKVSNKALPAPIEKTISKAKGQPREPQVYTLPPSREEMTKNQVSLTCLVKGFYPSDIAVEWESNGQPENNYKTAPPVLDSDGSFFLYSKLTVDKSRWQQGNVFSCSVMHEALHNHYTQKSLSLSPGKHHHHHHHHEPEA

B1: BisG1-FAPα-FERL/DR4-FERR (bispecific antibody, human IgG1, kappa, lambda)
heavy 1: EVQLLESGGGLVQPGGSPRLSCEASGFTFSSYALSWVRQAPGKGLEWVSAISGSGGGRYYADSVKGRFTISRDNSKNTLFLQMNSLRAEDTAVYYCAKEGYSSSGTYWDHWGQGTLVTVSSASTKGPSVFPLAPSSKSTSGGTAALGCLVKDYFPEPVTVSWNSGALTSGVHTFPAVLQSSGLYSLSSVVTVPSSSLGTQTYICNVNHKPSNTKVDKRVEPKSCDKTHTCPPCPAPEFERGPSVFLFPPKPKDTLMISRTPEVTCVVVDVSHEDPEVKFNWYVDGVEVHNAKTKPREEQYNSTYRVVSVLTVLHQDWLNGKEYKCKVSNKALPAPIEKTISKAKGQPREPQVYTLPPSREEMTKNQVSLTCLVKGFYPSDIAVEWESNGQPENNYKTTPPVLDSDGSFLLYSKLTVDKSRWQQGNVFSCSVMHEALHNHYTQKSLSLSPG
light 1: AIQMTQSPSSVSASVGDRVTITCRASQGVSSWLAWYQQKPGRAPKLLIYVASTLQSGVPSRFSGSGSGTDFTLTINSLQPEDFATYYCQQANSFPPTFGQGTRLEMKRTVAAPSVFIFPPSDEQLKSGTASVVCLLNNFYPREAKVQWKVDNALQSGNSQESVTEQDSKDSTYSLSSTLTLSKADYEKHKVYACEVTHQGLSSPVTKSFNRGEC
heavy 2: QVQLQESGPGLVKPSGTLSLTCAVSGGSISSYSWWSWIRQPPGKGLEWIGELYHSGSTNYNPSLKSRVTISVDKSKNQFSLKLRSVTAADTAVYYCVRGVATIDYWGQGTLVTVSSASTKGPSVFPLAPSSKSTSGGTAALGCLVKDYFPEPVTVSWNSGALTSGVHTFPAVLQSSGLYSLSSVVTVPSSSLGTQTYICNVNHKPSNTKVDKRVEPKSCDKTHTCPPCPAPEFERGPSVFLFPPKPKDTLMISRTPEVTCVVVDVSHEDPEVKFNWYVDGVEVHNAKTKPREEQYNSTYRVVSVLTVLHQDWLNGKEYKCKVSNKALPAPIEKTISKAKGQPREPQVYTLPPSREEMTKNQVSLTCLVKGFYPSDIAVEWESNGQPENNYKTTPPVLDSDGSFFLYSRLTVDKSRWQQGNVFSCSVMHEALHNHYTQKSLSLSPG
light 2: QSALTQPPSASGSPGQSVTISCTGTSSDVGGYNFVSWYQQDPGKAPKLLIYEVTKRPSGVPDRFSGSKSGNTASLTVSGLQAEDEADYYCSSYAGSNNVMFGGGTKLTVLGQPKAAPSVTLFPPSSEELQANKATLVCLISDFYPGAVTVAWKADSSPVKAGVETTTPSKQSNNKYAASSYLSLTPEQWKSHRSYSCQVTHEGSTVEKTVAPTECS
notes: Human IgG1 bispecific made by controlled Fab-arm exchange of IgG1-FAPα-FERL and IgG1-DR4-FERR; monovalent for FAPα and for DR4; also called GEN1057
EC50 (read off the curve) [1]: ~1 mg/L
EC50 (read off the curve) [2]: ~0.5 mg/L

B2: BisG1-FAPα-FERL/b12-FERR (bispecific antibody, human IgG1, kappa)
heavy 1: EVQLLESGGGLVQPGGSPRLSCEASGFTFSSYALSWVRQAPGKGLEWVSAISGSGGGRYYADSVKGRFTISRDNSKNTLFLQMNSLRAEDTAVYYCAKEGYSSSGTYWDHWGQGTLVTVSSASTKGPSVFPLAPSSKSTSGGTAALGCLVKDYFPEPVTVSWNSGALTSGVHTFPAVLQSSGLYSLSSVVTVPSSSLGTQTYICNVNHKPSNTKVDKRVEPKSCDKTHTCPPCPAPEFERGPSVFLFPPKPKDTLMISRTPEVTCVVVDVSHEDPEVKFNWYVDGVEVHNAKTKPREEQYNSTYRVVSVLTVLHQDWLNGKEYKCKVSNKALPAPIEKTISKAKGQPREPQVYTLPPSREEMTKNQVSLTCLVKGFYPSDIAVEWESNGQPENNYKTTPPVLDSDGSFLLYSKLTVDKSRWQQGNVFSCSVMHEALHNHYTQKSLSLSPG
light 1: AIQMTQSPSSVSASVGDRVTITCRASQGVSSWLAWYQQKPGRAPKLLIYVASTLQSGVPSRFSGSGSGTDFTLTINSLQPEDFATYYCQQANSFPPTFGQGTRLEMKRTVAAPSVFIFPPSDEQLKSGTASVVCLLNNFYPREAKVQWKVDNALQSGNSQESVTEQDSKDSTYSLSSTLTLSKADYEKHKVYACEVTHQGLSSPVTKSFNRGEC
heavy 2: QVQLVQSGAEVKKPGASVKVSCQASGYRFSNFVIHWVRQAPGQRFEWMGWINPYNGNKEFSAKFQDRVTFTADTSANTAYMELRSLRSADTAVYYCARVGPYSWDDSPQDNYYMDVWGKGTTVIVSSASTKGPSVFPLAPSSKSTSGGTAALGCLVKDYFPEPVTVSWNSGALTSGVHTFPAVLQSSGLYSLSSVVTVPSSSLGTQTYICNVNHKPSNTKVDKRVEPKSCDKTHTCPPCPAPEFERGPSVFLFPPKPKDTLMISRTPEVTCVVVDVSHEDPEVKFNWYVDGVEVHNAKTKPREEQYNSTYRVVSVLTVLHQDWLNGKEYKCKVSNKALPAPIEKTISKAKGQPREPQVYTLPPSREEMTKNQVSLTCLVKGFYPSDIAVEWESNGQPENNYKTTPPVLDSDGSFFLYSRLTVDKSRWQQGNVFSCSVMHEALHNHYTQKSLSLSPG
light 2: EIVLTQSPGTLSLSPGERATFSCRSSHSIRSRRVAWYQHKPGQAPRLVIHGVSNRASGISDRFSGSGSGTDFTLTITRVEPEDFALYYCQVYGASSYTFGQGTKLERKRTVAAPSVFIFPPSDEQLKSGTASVVCLLNNFYPREAKVQWKVDNALQSGNSQESVTEQDSKDSTYSLSSTLTLSKADYEKHKVYACEVTHQGLSSPVTKSFNRGEC
binding result (human DR4HsECD-FcHisCtag): no binding (tested: 800 nM)

B3: IgG1-DR4-FERR (antibody, V domains shown)
VH: QVQLQESGPGLVKPSGTLSLTCAVSGGSISSYSWWSWIRQPPGKGLEWIGELYHSGSTNYNPSLKSRVTISVDKSKNQFSLKLRSVTAADTAVYYCVRGVATIDYWGQGTLVTVSS
VL: QSALTQPPSASGSPGQSVTISCTGTSSDVGGYNFVSWYQQDPGKAPKLLIYEVTKRPSGVPDRFSGSKSGNTASLTVSGLQAEDEADYYCSSYAGSNNVMFGGGTKLTVLG
notes: Bivalent monoclonal IgG1 lambda
EC50 [3]: 1.01 mg/L
